In the Human Domainome abundance scans (Beltran et al. 2025):
± gives the uncertainty stated by the source.

B1: Steroid hormone receptor ERR2, residues 100 to 176; numbered along this chain, O95718 (parent)
chain: KRLCLVCGDIASGYHYGVASCEACKAFFKRTIQGNIEYSCPATNECEITKRRRKSCQACRFMKCLKVGMLKEGVRLD

Variants of: B1
Test: abundance fitness (aPCA) (normalised: wild type 0, dead -1); higher = more abundant; growth selection in yeast, the domain comes from the species named
Details: Homo sapiens

Variant	abundance fitness
KRLCLVCGDIASGYHYGVASCEACKAFFKRTIQGNIEYSCPATNECEITKCRRKSCQACRFMKCLKVGMLKEGVRLD [R51C]	-0.803 ± 0.32
KRLCLVCGDIASGYHYGVASCEACKAFFKRTIQGNIEYSCPATNECEITKARRKSCQACRFMKCLKVGMLKEGVRLD [R51A]	0.002 ± 0.072
KRLCLVCGDIASGYHYGVASCEACKAFFKRTIQGNIEYSCPATNECEITKDRRKSCQACRFMKCLKVGMLKEGVRLD [R51D]	-0.084 ± 0.13
KRLCLVCGDIASGYHYGVASCEACKAFFKRTIQGNIEYSCPATNEWEITKRRRKSCQACRFMKCLKVGMLKEGVRLD [C46W]	-0.733 ± 0.098
KRLCLVCGDIASGYHYGVASCEACKAFFKRTIQGNIEYSCPATNEVEITKRRRKSCQACRFMKCLKVGMLKEGVRLD [C46V]	-0.615 ± 0.084
KRLCLVCGDIASGYHYGVASCEACKAFFKRTIQGNIEYSCPATNEYEITKRRRKSCQACRFMKCLKVGMLKEGVRLD [C46Y]	-0.59 ± 0.23
KRLCLVCGDIASGYHYGVASCEACKAFFKRTIQGNIEYSCPATNETEITKRRRKSCQACRFMKCLKVGMLKEGVRLD [C46T]	-0.766 ± 0.15
KRLCLVCGDIASGYHYGVASCEACKAFFKRTIQGNIEYSCPATNEQEITKRRRKSCQACRFMKCLKVGMLKEGVRLD [C46Q]	-0.834 ± 0.17
KRLCLVCGDIASGYHYGVASCEACKAFFKRTIQGNIEYSCPATNEMEITKRRRKSCQACRFMKCLKVGMLKEGVRLD [C46M]	-0.557 ± 0.12
KRLCLVCGDIASGYHYGVASCEACKAFFKRTIQGNIEYSCPATNEREITKRRRKSCQACRFMKCLKVGMLKEGVRLD [C46R]	-0.704 ± 0.082
KRLCLVCGDIASGYHYGVASCEACKAFFKRTIQGNIEYSCPATNENEITKRRRKSCQACRFMKCLKVGMLKEGVRLD [C46N]	-0.735 ± 0.2
KRLCLVCGDIASGYHYGVASCEACKAFFKRTIQGNIEYSCPATNEPEITKRRRKSCQACRFMKCLKVGMLKEGVRLD [C46P]	-0.796 ± 0.17
KRLCLVCGDIASGYHYGVASCEACKAFFKRTIQGNIEYSCPATNESEITKRRRKSCQACRFMKCLKVGMLKEGVRLD [C46S]	-0.539 ± 0.079
KRLCLVCGDIASGYHYGVASCEACKAFFKRTIQGNIEYSCPATNECEIIKRRRKSCQACRFMKCLKVGMLKEGVRLD [T49I]	-0.281 ± 0.12
KRLCLVCGDIASGYHYGVASCEACKAFFKRTIQGNIEYSCPATNECEIAKRRRKSCQACRFMKCLKVGMLKEGVRLD [T49A]	0.189 ± 0.055
KRLCLVCGDIASGYHYGVASCEACKAFFKRTIQGNIEYSCPATNECEILKRRRKSCQACRFMKCLKVGMLKEGVRLD [T49L]	-0.117 ± 0.087
KRLCLVCGDIASGYHYGVASCEACKAFFKRTIQGNIEYSCPATNECEIKKRRRKSCQACRFMKCLKVGMLKEGVRLD [T49K]	-0.035 ± 0.099
KRLCLVCGDIASGYHYGVASCEACKAFFKRTIQGNIEYSCPATNECEINKRRRKSCQACRFMKCLKVGMLKEGVRLD [T49N]	0.015 ± 0.11

Variant	abundance fitness
KRLCLVCGDIASGYHYGVASCEACKAFFKRTIQGNIEYSCPATNECEIGKRRRKSCQACRFMKCLKVGMLKEGVRLD [T49G]	-0.041 ± 0.059
KRLCLVCGDIASGYHYGVASCEACKAFFKRTIQGNIEYSCPATNECEIFKRRRKSCQACRFMKCLKVGMLKEGVRLD [T49F]	-0.254 ± 0.17
KRLCLVCGDIASGYHYGVASCEACKAFFKRTIQGNIEYSCPATNECEIEKRRRKSCQACRFMKCLKVGMLKEGVRLD [T49E]	-0.003 ± 0.095
KRLCLVCGDIASGYHYGVASCEACKAFFKRTIQGNIEYSCPATNECEISKRRRKSCQACRFMKCLKVGMLKEGVRLD [T49S]	-0.164 ± 0.071
KRLCLVCGDIASGYHYGVASCEACKAFFKRTIQGNIEYSCPATNECEICKRRRKSCQACRFMKCLKVGMLKEGVRLD [T49C]	-0.948 ± 0.31
KRLCLVCGDIASGYHYGVASCEACKAFFKRTIQGNIEYSCPATNECEIPKRRRKSCQACRFMKCLKVGMLKEGVRLD [T49P]	-0.223 ± 0.088
KRLCLVCGDIASGYHYGVASCEACKAFFKRTIQGNIEYSCPATNECEIWKRRRKSCQACRFMKCLKVGMLKEGVRLD [T49W]	-0.199 ± 0.092
KRLCLVCGDIASGYHYGVASCEACKAFFKRTIQGNIEYSCPATNECEIDKRRRKSCQACRFMKCLKVGMLKEGVRLD [T49D]	0.118 ± 0.11
KRLCLVCGDIASGYHYGVASCEACKAFFKRTIQGNIEYSCPATNECEIHKRRRKSCQACRFMKCLKVGMLKEGVRLD [T49H]	-0.523 ± 0.17
KRLCLVCGDIASGYHYGVASCEACKAFFKRTIQGNIEYSCPATNECEIVKRRRKSCQACRFMKCLKVGMLKEGVRLD [T49V]	-0.138 ± 0.073
KRLCLVCGDIASGYHYGVASCEACKAFFKRTIQGNIEYSCPATNECEIRKRRRKSCQACRFMKCLKVGMLKEGVRLD [T49R]	-0.2 ± 0.062
KRLCLVCGDIASGYHYGVASCEACKAFFKRTIQGNIEYSCPATNECEIQKRRRKSCQACRFMKCLKVGMLKEGVRLD [T49Q]	-0.332 ± 0.15
KRLCLVCGDIASGYHYGVASCEACKAFFKRTIQGNIEYSCPATNECEPTKRRRKSCQACRFMKCLKVGMLKEGVRLD [I48P]	-0.242 ± 0.11
KRLCLVCGDIASGYHYGVASCEACKAFFKRTIQGNIEYSCPATNECENTKRRRKSCQACRFMKCLKVGMLKEGVRLD [I48N]	0.266 ± 0.16
KRLCLVCGDIASGYHYGVASCEACKAFFKRTIQGNIEYSCPATNECEFTKRRRKSCQACRFMKCLKVGMLKEGVRLD [I48F]	-0.298 ± 0.093
KRLCLVCGDIASGYHYGVASCEACKAFFKRTIQGNIEYSCPATNECEMTKRRRKSCQACRFMKCLKVGMLKEGVRLD [I48M]	-0.166 ± 0.11
KRLCLVCGDIASGYHYGVASCEACKAFFKRTIQGNIEYSCPATNECERTKRRRKSCQACRFMKCLKVGMLKEGVRLD [I48R]	-0.518 ± 0.093
